Values of other authors, collected in article PMC5430633.

Target: LC3B (Homo sapiens) (UniProt Q9GZQ8)

Kd: 91 µM
Substance: Nix LIR (from UniProt O60238)
